According to patent publication US20260078196A1 (TJ BIOPHARMA SHANGHAI, published 2026):
Where two headings read alike, the source gives them in different places. Each block holds one binder with its values, some of them ahead of it.

Columns and labels:
ROR1 antigen [1] = target: T1, ROR1 antigen (UniProt Q01973 30-406, limits assumed); assay: SPR, binding to ROR1
T1 construct: Soluble antigen of the Octet binning and of the SPR assay

ROR1 on cells [2] = target: T2, ROR1 on cells (UniProt Q01973 30-937); assay: flow cytometry (gMFI) on MDA-MB-231 cells
T2 construct: whole, on cells; also called ROR1 endogenous expressed tumor cell A549; ROR1-positive tumor cell lines

ROR1 antigen [3] = target: T1, ROR1 antigen; assay: SPR on ROR1
ROR1 on cells [4] = target: T2, ROR1 on cells; assay: flow cytometry (gMFI) on A549 cells
ROR1 antigen [5] = target: T1, ROR1 antigen; assay: SPR on ROR1; remark: listed apart in the source
ROR1 antigen [6] = target: T1, ROR1 antigen; assay: SPR on ROR1; remark: listed apart in the source
human CLDN6 on cells [7] = target: T3, human CLDN6 on cells (human, UniProt P56747 1-220); assay: flow cytometry (GMFI) on OVCAR3 cells
T3 construct: CHO-K1 cells stably expressing human CLDN6, and OVCAR3 / OV90 cells with endogenous CLDN6; also called CHO-K1-CLDN6; CLDN6 on OVCAR3 and OV90 cells
T3 sequence: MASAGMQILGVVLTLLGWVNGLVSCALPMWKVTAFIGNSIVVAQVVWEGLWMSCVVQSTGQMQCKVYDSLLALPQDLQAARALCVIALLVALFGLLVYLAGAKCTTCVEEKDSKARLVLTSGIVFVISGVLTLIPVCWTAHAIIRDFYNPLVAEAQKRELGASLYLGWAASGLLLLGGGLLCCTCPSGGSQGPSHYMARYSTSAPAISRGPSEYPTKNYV

human CLDN6 on cells [8] = target: T3, human CLDN6 on cells; assay: flow cytometry (GMFI) on OV90 cells
human CLDN6 on cells [9] = target: T3, human CLDN6 on cells; assay: flow cytometry (GMFI) on CHO-K1-CLDN6 cells
human MUC16 on cells [10] = target: T4, human MUC16 on cells (human, UniProt Q8WXI7 1-14507); assay: flow cytometry (GMFI) on OVCAR3 cells, nM is the unit of the x axis Log10[Ab] (nM)
T4 construct: whole, on cells; also called huMUC16; MUC16 on OVCAR3 and SNU216 cells

huMUC16, AA14198-14507 = target: T5, huMUC16, AA14198-14507; assay: binding ELISA on huMUC16 AA14198-14507
T5 chain: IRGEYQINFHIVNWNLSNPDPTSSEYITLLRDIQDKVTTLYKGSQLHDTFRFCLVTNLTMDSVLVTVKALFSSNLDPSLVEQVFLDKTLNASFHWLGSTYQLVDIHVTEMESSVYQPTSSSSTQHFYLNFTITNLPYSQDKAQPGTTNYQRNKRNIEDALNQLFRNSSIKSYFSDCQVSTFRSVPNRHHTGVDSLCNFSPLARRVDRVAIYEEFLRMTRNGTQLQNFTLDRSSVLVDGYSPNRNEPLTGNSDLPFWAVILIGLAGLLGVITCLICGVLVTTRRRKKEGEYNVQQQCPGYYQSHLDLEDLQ

huMUC16, AA13789-14451 = target: T6, huMUC16, AA13789-14451; assay: binding ELISA on huMUC16 AA13789-14451
T6 construct: also called MUC16 Antigen (human MUC16 AA13789-14451)
T6 chain: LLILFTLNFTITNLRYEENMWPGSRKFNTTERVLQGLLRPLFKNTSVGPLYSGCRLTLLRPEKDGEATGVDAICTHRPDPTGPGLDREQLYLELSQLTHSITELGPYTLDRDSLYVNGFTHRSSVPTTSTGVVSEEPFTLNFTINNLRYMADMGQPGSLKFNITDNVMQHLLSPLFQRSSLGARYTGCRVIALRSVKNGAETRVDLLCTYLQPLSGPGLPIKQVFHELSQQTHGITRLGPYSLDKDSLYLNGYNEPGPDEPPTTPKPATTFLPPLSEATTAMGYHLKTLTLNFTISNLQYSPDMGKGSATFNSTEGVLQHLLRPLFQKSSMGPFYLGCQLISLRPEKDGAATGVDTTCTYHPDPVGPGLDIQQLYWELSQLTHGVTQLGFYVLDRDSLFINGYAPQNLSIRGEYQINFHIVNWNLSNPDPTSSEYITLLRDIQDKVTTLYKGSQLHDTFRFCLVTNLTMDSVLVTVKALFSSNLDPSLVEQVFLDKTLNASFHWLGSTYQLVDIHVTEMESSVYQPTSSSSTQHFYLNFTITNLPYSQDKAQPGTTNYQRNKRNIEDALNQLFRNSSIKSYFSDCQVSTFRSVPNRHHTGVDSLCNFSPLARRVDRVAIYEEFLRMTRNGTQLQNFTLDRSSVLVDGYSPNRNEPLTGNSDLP

human MUC16 on cells [11] = target: T4, human MUC16 on cells; assay: flow cytometry (MFI GeoMean) on OVCAR3 cells, nM is the unit of the x axis Log10[Ab] (nM)
[12] = target: T7, HEK293-MUC16 (13810-14507) (human, UniProt Q8WXI7 13810-14507); assay: flow cytometry (MFI GeoMean) on HEK293-MUC16 (13810-14507) cells, nM is the unit of the x axis Log10[Ab] (nM)
T7 construct: range 13810-14507; also called MUC16 overexpressed HEK293 cells
T7 sequence: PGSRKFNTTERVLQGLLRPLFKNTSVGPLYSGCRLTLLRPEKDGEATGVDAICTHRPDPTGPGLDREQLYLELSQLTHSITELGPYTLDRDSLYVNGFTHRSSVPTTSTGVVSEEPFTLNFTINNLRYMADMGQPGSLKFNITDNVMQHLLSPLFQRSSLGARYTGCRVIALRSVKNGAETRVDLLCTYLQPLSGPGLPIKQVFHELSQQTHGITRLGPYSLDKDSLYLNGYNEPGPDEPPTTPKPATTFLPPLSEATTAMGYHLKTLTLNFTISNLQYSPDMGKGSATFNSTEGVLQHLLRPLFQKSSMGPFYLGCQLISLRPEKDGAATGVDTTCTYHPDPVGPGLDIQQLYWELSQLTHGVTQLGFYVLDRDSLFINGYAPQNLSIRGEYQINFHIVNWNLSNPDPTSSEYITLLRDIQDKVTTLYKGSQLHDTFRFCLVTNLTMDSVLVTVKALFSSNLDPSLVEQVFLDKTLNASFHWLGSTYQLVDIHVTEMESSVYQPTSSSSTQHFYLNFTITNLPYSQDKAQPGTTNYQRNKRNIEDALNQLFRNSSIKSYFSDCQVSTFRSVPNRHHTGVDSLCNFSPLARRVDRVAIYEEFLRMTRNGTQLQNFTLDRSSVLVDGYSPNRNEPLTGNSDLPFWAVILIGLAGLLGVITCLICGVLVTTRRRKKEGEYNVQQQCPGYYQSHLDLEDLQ

human MUC16 on cells [13] = target: T4, human MUC16 on cells; assay: flow cytometry (GMFI) on OVCAR3 cells; same value as in FIG. 11A, nM is the unit of the x axis
human MUC16 on cells [14] = target: T4, human MUC16 on cells; assay: flow cytometry (MFI GeoMean) on SNU216 cells, nM is the unit of the x axis Log10[Ab] (nM)
[15] = target: T7, HEK293-MUC16 (13810-14507); assay: flow cytometry (MFI GeoMean) on HEK293-MUC16 (13810-14507) cells; the curve lies on the Iso curve up to about 4 nM and reaches only about 8000 at 100 nM against 40000-75000 for the others; paragraph 397 says h3A5 does not bind these cells; no unit in the table, nM from the x axis

Kd (ROR1 antigen [1]): 12.1 nM
EC50 (read off the curve) (ROR1 on cells [2]): ~0.06 nM
koff (ROR1 antigen [3]): 0.00114 s⁻¹
kon (ROR1 antigen [3]): 93600 M⁻¹ s⁻¹
EC50 (read off the curve) (ROR1 on cells [4]): ~0.1 nM
B1: 4B-BiR1(Humanized) or 4B-hBiR1 (bispecific antibody, human IgG1, kappa)
heavy: not shown
chain: DIVMTQTPLSLSVTPGQPASISCKSSQSLLHSNGKTYLNWYLQKPGQSPQLLIYLVSKLESGVPDRFSGSGSGTDFTLKISRVEAEDVGVYYCLQATYFPYTFGQGTKLEIKGGGGSGGGGSGGGGSQVQLVQSGAEVKKPGASVKVSCKASGYTFTTYVMHWVRQAPGQGLEWMGYINPYNGGIRYNEKFKGRVTMTRDTSTSTVYMELSSLRSEDTAVYYCARRERGVYYGMDEWGQGTLVTVSSAAEPKSSDKTHTCPPCPAPELLGGPSVFLFPPKPKDTLMISRTPEVTCVVVDVSHEDPEVKFNWYVDGVEVHNAKTKPREEQYNSTYRVVSVLTVLHQDWLNGKEYKCKVSNKALPAPIEKTISKAKGQPREPQVCTLPPSREEMTKNQVSLSCAVKGFYPSDIAVEWESNGQPENNYKTTPPVLDSDGSFFLVSKLTVDKSRWQQGNVFSCSVMHEALHNHYTQKSLSLSPGKGGGGSGGGGSGGGGSQVQLQESGGGLVQPGGSLRLSCAASGYTYSSNCMGWFRQAPGKGLEGVAVICTGGGSPSYADSVKGRFTISRDNAKNTLYLQMNSLRAEDTAVYYCAADLLRAGTPLSSYEFNYWGQGTLVTVSS
light: DIQMTQSPSSLSASVGDRVTITCRASQDIYSYLSWFQQKPGKAPKTLIYRANRLVDAVPSRFSGSGSGQDYTLTISSLQPEDFATYYCLQYDEFPYTFGQGTKLEIKRTVAAPSVFIFPPSDEQLKSGTASVVCLLNNFYPREAKVQWKVDNALQSGNSQESVTEQDSKDSTYSLSSTLTLSKADYEKHKVYACEVTHQGLSSPVTKSFNRGEC
notes: Humanized bi-paratopic ROR1 x 4-1BB antibody: h3C5 IgG half with VHH plus h8F2 scFv-Fc-VHH; also called 4-hiBiR1

koff (ROR1 antigen [6]): 0.0592 s⁻¹
kon (ROR1 antigen [6]): 250000 M⁻¹ s⁻¹
Kd (ROR1 antigen [1]): 237 nM
EC50 (read off the curve) (ROR1 on cells [2]): ~0.01 nM
EC50 (read off the curve) (ROR1 on cells [4]): ~0.03 nM
B3: 4B-8F2 (humanized) or 4B-h8F2 (bispecific antibody, human IgG1, kappa)
heavy: not shown
light: DIVMTQTPLSLSVTPGQPASISCKSSQSLLHSNGKTYLNWYLQKPGQSPQLLIYLVSKLESGVPDRFSGSGSGTDFTLKISRVEAEDVGVYYCLQATYFPYTFGQGTKLEIKRTVAAPSVFIFPPSDEQLKSGTASVVCLLNNFYPREAKVQWKVDNALQSGNSQESVTEQDSKDSTYSLSSTLTLSKADYEKHKVYACEVTHQGLSSPVTKSFNRGEC
notes: Humanized ROR1 x 4-1BB BsAb

EC50 (human CLDN6 on cells [7]): 5.1 nM
EC50 (human CLDN6 on cells [8]): 1.2 nM
EC50 (human CLDN6 on cells [9]): 0.452 nM
B4: parental CLDN6-1 antibody (antibody, V domains shown)
VH: QVQLQESGPGLVKPSETLSLTCTVSGYSITSGYYWNWIRQPPGKGLEWMGYISYSGSNNYNPSLKNRVTISRDTSKNQFSLKLSSVTAADTAVYYCARGGYYFDYWGQGTLVTVSS
VL: DIVMTQSPDSLAVSLGERATINCKSSQSLLNTNNQKNYLAWYQQKPGQPPKLLIYFASTRESGVPDRFSGSGSGTDFTLTISSLQAEDVAVYFCQQHYNAPRTFGGGTKVEIK

The remaining lines, values behind:

B2: 4B-3C5 (humanized) or 4B-h3C5 (bispecific antibody, human IgG1, kappa)
heavy: not shown
light: DIQMTQSPSSLSASVGDRVTITCRASQDIYSYLSWFQQKPGKAPKTLIYRANRLVDAVPSRFSGSGSGQDYTLTISSLQPEDFATYYCLQYDEFPYTFGQGTKLEIKRTVAAPSVFIFPPSDEQLKSGTASVVCLLNNFYPREAKVQWKVDNALQSGNSQESVTEQDSKDSTYSLSSTLTLSKADYEKHKVYACEVTHQGLSSPVTKSFNRGEC
notes: Humanized ROR1 x 4-1BB BsAb; also called humanized 3C5 IgG x 4-1BB VHH
Kd (ROR1 antigen [1]): 79.3 nM
koff (ROR1 antigen [5]): 0.00821 s⁻¹
kon (ROR1 antigen [5]): 104000 M⁻¹ s⁻¹
EC50 (read off the curve) (ROR1 on cells [2]): ~0.03 nM
EC50 (read off the curve) (ROR1 on cells [4]): ~0.03 nM

B5: M16-2 (antibody, human IgG1, kappa, N297A, V domains shown)
VH: EVQLVESGGGLEQPGRSLRLSCTASGFAFGDHTMSWVRQAPGKGLEWVGFIRSRAYGGTTEYAASVKGRFTISRDDSKSIAYLQMDSLKTEDTAVYYCTSGGYDSSLHYYYYYHGMDVWGRGTTVTVSS
VL: not shown
notes: Benchmark anti-MUC16 antibody; also called benchmarker antibody M16-2
EC50 (human MUC16 on cells [10]): 0.257 nM
binding result (huMUC16, AA14198-14507): no binding (tested: 100 nM)
binding result (huMUC16, AA13789-14451): binds
EC50 (human MUC16 on cells [11]): 0.274 nM
EC50 [12]: 0.423 nM
EC50 (human MUC16 on cells [13]): 0.257 nM
EC50 (human MUC16 on cells [14]): 0.152 nM

B6: M16-1 (antibody, human IgG1, kappa, N297A, V domains shown)
VH: QVQLVESGGGLVKPGGSLRLSCAASGFTFSNYYMSWVRQAPGKGLEWISYISGRGSTIFYADSVKGRITISRDNAKNSLFLQMNSLRAEDTAVYFCVKDRGGYSPYWGQGTLVTVSS
VL: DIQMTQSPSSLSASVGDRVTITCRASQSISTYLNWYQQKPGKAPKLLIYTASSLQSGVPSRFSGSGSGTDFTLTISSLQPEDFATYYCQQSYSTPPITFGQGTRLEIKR
notes: also called benchmarker antibody M16-1
EC50 (human MUC16 on cells [10]): 0.192 nM
binding result (huMUC16, AA13789-14451): binds
EC50 (human MUC16 on cells [13]): 0.192 nM

B7: 3A5 (antibody, human IgG1, kappa, V domains shown)
VH: EVQLVESGGGLVQPGGSLRLSCAASGYSITNDYAWNWVRQAPGKGLEWVGYISYSGYTTYNPSIKSRFTISRDTSKNTLYLQMNSLRAEDTAVYYCARWTSGLDYWGQGTLVTVSS
VL: DIQMTQSPSSLSASVGDRVTITCKASDLIHNWLAWYQQKPGKAPKLLIYGATSLETGVPSRFSGSGSGTDFTLTISSLQPEDFATYYCQQYWTTPFTFGQGTKVEIKR
notes: Benchmark anti-MUC16 antibody; printed both as h3A5 and 3A5; also called h3A5; benchmarker 3A5
EC50 (human MUC16 on cells [11]): 0.799 nM
EC50 [15]: 63.4 nM
EC50 (human MUC16 on cells [14]): 0.571 nM
